Here are results for 1 molecule from US20120028811, “DEVICE FOR RAPID IDENTIFICATION OF NUCLEIC ACIDS FOR BINDING TO SPECIFIC CHEMICAL TARGETS” (DONGGUK UNIVERSITY, published 2012).

This data set addresses T1, TATA-binding protein (TBP) (UniProt P13393 P13393:1-240).
T1 sequence: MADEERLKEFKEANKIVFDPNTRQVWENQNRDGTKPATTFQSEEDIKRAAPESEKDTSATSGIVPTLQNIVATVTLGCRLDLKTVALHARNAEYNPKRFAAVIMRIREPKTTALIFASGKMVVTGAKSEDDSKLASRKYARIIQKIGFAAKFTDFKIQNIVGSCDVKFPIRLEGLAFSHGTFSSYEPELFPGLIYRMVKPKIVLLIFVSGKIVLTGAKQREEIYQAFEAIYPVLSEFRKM
The data set can be described thus: fluorescence microscopy of TBP in sol-gel; binding buffer 25 mM Tris pH 8, 100 mM NaCl, 25 mM KCl, 10 mM MgCl2. The note with it: tags: His-tag, full length, expressed in E. coli BL21-DE3; label: 5'-Cy3 on top strand. How it is done:
Sol-gels with TBP were enclosed with the PDMS lid. After encapsulation, the channels were washed extensively with the PBS buffer (binding buffer) by connecting one end of the main channel to a syringe pump (Pump 11, Harvard Apparatus, Holliston, Mass.). Following the pre-washing step, the silicate gel spot was blocked for 1 hour with 1× binding buffer that contained 25 mM Tris-Cl (pH 8), 100 mM NaCl, 25 mM KCl and 10 mM MgCl₂ with 5% skim milk. The blocking buffer works as a nonspecific competitor in the reaction mixture, which helps to achieve the selection of high-affinity molecules. […] After binding, the interaction of immobilized TBP proteins and Cy-3 labeled TATA DNA was monitored by fluorescence microscopy.
The Cy-3-labeled TATA DNA has a high affinity for TBP similar to that of the conventionally selected aptamers. […] The measured melting point of TATA DNA was 72° C. […] The fluorescence intensity of the sol-gel except for the negative sol-gel was detected under the fluorescent microscope (FIG. 6).

B1: TATA DNA (dsDNA)
DNA 1: GGGAATTCGGGCTATAAAAGGGGGATCCGG
DNA 2: CCGGATCCCCCTTTTATAGCCCGAATTCCC
In the case of B1, the binding result is “binds”.
